Test system: primary wild type osteoblasts
Assay: Soluble factors added to osteoblasts during osteogenic induction in presence or absence of Dex
Format: cell-based, mouse
Protocol: FIG. 7. Differential gene regulation in GR^dim osteoblasts and bone organs by GCs and involvement of AP-1 in suppression of IL-11 in osteoblast differentiation. (A-E) Primary osteoblasts were grown until confluence and treated as described in FIG. 4A. qRT-PCR-determined mRNA expression levels of GILZ, Per-1, KLF15, Lif (LIF) and II11 (IL-11) after six hours. (F-H) qRT-PCR-determined mRNA expression level of IL-11 in organ cultures of GR mutant fetal hind legs (F), in dN^Runx2Cre osteoblasts (G) and c-jun^null MEFs (H) after six hours treatment. (I) Chromatin immunoprecipitation of MEFs after six hours. […] IgG precipitation served as negative control and amplification of the input as positive control. […] At day 10, ALP activity was determined and at day 20, Alizarin Red staining was performed. (K) Quantification of ALP-positive cells treated as in (J) after 10 days. (L) qRT-PCR-determined Runx2 mRNA expression level in cells treated as in (J) after 10 days.
FIG. 13. Effects of GR regulated soluble factors on osteoblast cell numbers. […] At day 10 cell counts were determined by automatic microscopy. Data are represented as mean+/−SEM. *<0.05.
FIG. 14. Effects of GR regulated soluble factors on osteoblast cell differentiation. Primary wild type osteoblasts were differentiated with or without Dex. At day 10 the specific ALP activity was determined and is depicted as ALP positive cells in percent in the absence or presence of NGF (A), IL-6 (B), EGF (C) and LIF (D). Data are represented as mean+/−SEM. * p<0.05; ** p<0.01.
Primary osteoblasts were isolated from either embryonic (E18.5) or neonatal calvaria by sequential digestions and cultivated as previously described (David et al., 2005). c-Jun-deficient cells were obtained from previously described mice (Schreiber et al., 1999). […] Differentiation of osteoblasts was determined by staining for ALP activity (ALP kit, Sigma or ELF® Phosphatase Detection Kit, ATCC) or by Alizarin Red staining (Sigma) at indicated time points. Apoptosis was detected by In situ Cell Death Detection Kit (Roche), and proliferation with fluorescent immunohistochemistry using mouse anti-Ki-67 (BD Pharmingen™) and Alexa Fluor® 594-labeled donkey anti-mouse IgG (Molecular Probes™). Quantification of the stainings and cell numbers according to DAPI labeling was performed by automated microscopy using Cellomics ArrayScan and software HCS Scan® (Thermo-Fischer). The factors EGF (Calbiochem), NGF2 (Sigma), IL-6 (ImmunoTools), IL-11 (Antigenix America, Inc.) and LIF (Chemicon) were added to the culture after differentiation at concentrations of 0.8, 4 and 20 ng/ml. qRT-PCR was performed as previously described (Tuckermann et al., 2007). Primer information can be provided upon request.

Row | Molecule | rescue of Dex-impaired osteoblast differentiation (ALP positive cells) (day 10, with Dex) | rescue of Dex-reduced osteoblast cell numbers (day 10, with Dex) | Dex suppression of ALP activity, of Runx2 expression and calcification (in the presence of IL-11) | effect on osteoblast differentiation
1 | IL-11: recombinant Interleukin-11 (protein, UniProt P20809 22-199, looked up) Interleukin-11: PGPPPGPPRVSPDPRAELDSTVLLTRSLLADTRQLAAQLRDKFPADGDHNLDSLPTLAMSAGALGALQLPGVLTRLRADLLSYLRHVQWLRRAGGSSLKTLEPELGTLQARLDRLLRRLQLLMSRLALPQPPPDPPAPPLAPPSSAWGGIRAAHAILGGLHLTLDWAVRGLLLLKTRL | potently antagonized | not rescuing | fully restored | –
2 | HB-EGF: heparin binding-epidermal growth factor (protein, UniProt Q99075 63-148, looked up) Heparin-binding EGF-like …: DLQEADLDLLRVTLSSKPQALATPNKEEHGKRKKKGKGLGKKRDPCLRKYKDFCIHGECKYVKELRAPSCICHPGYHGERCHGLSL | – | – | – | inhibitory effect

Reference: patent publication US8906858B2, “Method for the prophylactic or therapeutic treatment of glucocorticoid-induced osteoporosis” (Fritz-Lipmann-Institut E. V. Leibniz-Institut Fuer …, priority 2010, dated 2014)
